According to patent US20200370050:

Target: FLAG-CRAF (1-648)

B1: human placental GSTP1 (Sigma-Aldrich) (protein)
chain: PPYTVVYFPVRGRCAALRMLLADQGQSWKEEVVTVETWQEGSLKASCLYGQLPKFQDGDLTLYQSNTILRHLGRTLGLYGKDQQEAALVDMVNDGVEDLRCKYISLIYTNYEAGKDDYVKALPGQLKPFETLLSQNQGGKTFIVGDQISFADYNLLDLLLIHEVLAPGCLDAFPLLSAYVGRLSARPKLKAFLASPEYVNLPINGNGKQ
- phosphorylation of MEK1 by FLAG-CRAF (in vitro kinase assay, Western blot for p-MEK1/2): GSTP1 was found to enhance the phosphorylation of MEK1 by FLAG-CRAF (compare lanes 3 and 5 in FIG. 3)
